Assay [1] deals with T1, O13.
T1 chain: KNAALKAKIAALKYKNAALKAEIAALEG
Kind of assay: two-hybrid library CC0.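 Further: natural log of median RNA to DNA barcode read ratio; higher means stronger binding.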 The note with it: mean of both orientations.

Assay [2] addresses T2, O14.
T2 chain: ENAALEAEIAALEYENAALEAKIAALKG
Nature of the assay: two-hybrid library CC0.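 Further: natural log of median RNA to DNA barcode read ratio; higher means stronger binding.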 The note with it: mean of both orientations.

Assay [3] deals with T3, O15.
T3 chain: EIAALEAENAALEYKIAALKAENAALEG
Nature of the assay: two-hybrid library CC0.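 Further: natural log of median RNA to DNA barcode read ratio; higher means stronger binding.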 The conditions noted are these: mean of both orientations.

Assay [4] has as its target T4, O16.
T4 chain: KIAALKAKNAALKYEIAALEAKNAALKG
Kind of assay: two-hybrid library CC0.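 Further: natural log of median RNA to DNA barcode read ratio; higher means stronger binding.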 The conditions noted are these: mean of both orientations.

For assay [5], the target named is T5, O2.
T5 chain: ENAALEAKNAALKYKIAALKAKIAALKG
Kind of assay: two-hybrid library CC0. The conditions noted are these: mean of both orientations.

The target of assay [6] is T6, O3.
T6 chain: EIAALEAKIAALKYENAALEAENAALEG
Kind of assay: two-hybrid library CC0. The conditions noted are these: mean of both orientations.

The target in assay [7] is T7, O4.
T7 chain: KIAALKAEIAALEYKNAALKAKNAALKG
Kind of assay: two-hybrid library CC0. The note with it: mean of both orientations.

For assay [8], the target named is T8, O5.
T8 chain: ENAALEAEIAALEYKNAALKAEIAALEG
Kind of assay: two-hybrid library CC0. The conditions noted are these: mean of both orientations.

For assay [9], the target named is T9, O6.
T9 chain: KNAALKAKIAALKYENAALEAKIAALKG
Nature of the assay: two-hybrid library CC0. The note with it: mean of both orientations.

In assay [10] the target is T10, O7.
T10 chain: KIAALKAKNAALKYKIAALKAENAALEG
Nature of the assay: two-hybrid library CC0. The note with it: mean of both orientations.

Assay [11] addresses T11, O8.
T11 chain: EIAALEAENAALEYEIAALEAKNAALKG
Nature of the assay: two-hybrid library CC0. The conditions noted are these: mean of both orientations.

Assay [12] has as its target T12, O9.
T12 chain: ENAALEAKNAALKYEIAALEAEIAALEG
Nature of the assay: two-hybrid library CC0. The conditions noted are these: mean of both orientations.

Assay [13] deals with T13, P3mS.
T13 chain: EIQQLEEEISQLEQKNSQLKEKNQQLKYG
Nature of the assay: two-hybrid library CC1.

Assay [14] concerns the target T14, P4.
T14 chain: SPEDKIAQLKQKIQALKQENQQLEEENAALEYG
Kind of assay: two-hybrid library CC1. The note with it: mean of both orientations.

Assay [15] addresses T15, P4mS.
T15 chain: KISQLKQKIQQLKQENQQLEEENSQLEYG
Kind of assay: two-hybrid library CC1. The conditions noted are these: mean of both orientations.

Assay [16] addresses T16, P5SC1.
T16 chain: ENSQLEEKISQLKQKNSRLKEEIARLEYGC
Nature of the assay: two-hybrid library CC1. The note with it: mean of both orientations.

For assay [17], the target named is T17, P5SC2.
T17 chain: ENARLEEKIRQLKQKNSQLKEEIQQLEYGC
Nature of the assay: two-hybrid library CC1. The note with it: mean of both orientations.

Assay [18] deals with T18, P5.
T18 chain: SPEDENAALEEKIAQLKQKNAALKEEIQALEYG
Nature of the assay: two-hybrid library CC1. The note with it: mean of both orientations.

Assay [19] has as its target T19, P5mS.
T19 chain: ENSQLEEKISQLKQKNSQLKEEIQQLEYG
Nature of the assay: two-hybrid library CC1. The note with it: mean of both orientations.

Assay [20] has as its target T20, P6SC1.
T20 chain: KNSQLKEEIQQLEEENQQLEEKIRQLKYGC
Kind of assay: two-hybrid library CC1. The note with it: mean of both orientations.

Assay [21] addresses T21, P6SC2.
T21 chain: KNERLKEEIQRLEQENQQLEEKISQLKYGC
Nature of the assay: two-hybrid library CC1. The conditions noted are these: mean of both orientations.

For assay [22], the target named is T22, P6.
T22 chain: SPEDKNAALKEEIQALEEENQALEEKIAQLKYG
Nature of the assay: two-hybrid library CC1. The note with it: mean of both orientations.

For assay [23], the target named is T23, P6mS.
T23 chain: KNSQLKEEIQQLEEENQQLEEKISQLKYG
Nature of the assay: two-hybrid library CC1. The conditions noted are these: mean of both orientations.

For assay [24], the target named is T24, P7.
T24 chain: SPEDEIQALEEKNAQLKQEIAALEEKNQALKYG
Kind of assay: two-hybrid library CC1. The conditions noted are these: mean of both orientations.

The target in assay [25] is T25, P7mS.
T25 chain: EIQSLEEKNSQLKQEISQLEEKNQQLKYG
Kind of assay: two-hybrid library CC1. The conditions noted are these: mean of both orientations.

Assay [26] concerns the target T26, P8.
T26 chain: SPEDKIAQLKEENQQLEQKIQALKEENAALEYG
Kind of assay: two-hybrid library CC1. The conditions noted are these: mean of both orientations.

The target in assay [27] is T27, P8mS.
T27 chain: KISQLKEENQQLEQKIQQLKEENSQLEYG
Nature of the assay: two-hybrid library CC1. The note with it: mean of both orientations.

Assay [28] concerns the target T28, P9.
T28 chain: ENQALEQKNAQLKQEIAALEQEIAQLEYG
Nature of the assay: two-hybrid library CC1. The conditions noted are these: mean of both orientations.

B1: O13 (peptide)
chain: KNAALKAKIAALKYKNAALKAEIAALEG
Consider B1, for which the interaction score was -2.86 in assay [1]; 1.21 in assay [2]; -0.499 in [3]; -2.87 in assay [4]; -2.82 in [5]; -2.81 in assay [6]. In addition, the interaction score is -2.72 in assay [7]; -2.45 in [8]; -1.12 in assay [9]; -2.81 in [10]; -1.5 in assay [11]; -2.75 in assay [12].

B2: P3mS (peptide)
chain: EIQQLEEEISQLEQKNSQLKEKNQQLKYG
Regarding B2, the interaction score is -3.24 in [13]; -0.0449 in assay [14]; 0.221 in assay [15]; -2.77 in assay [16]; -2.78 in assay [17]; -2.93 in assay [18]. The interaction score in assay [19] is -2.69; in assay [20], -2.8; in [21], -2.5; in assay [22], -2.8; in assay [23], -2.74; in assay [24], -2.64. Besides, the interaction score is -2.96 in [25], -2.54 in assay [26], -2.87 in [27] and -2.34 in assay [28].
